Laboratory results as given in FireProtDB (doi:10.1016/j.bbapap.2007.05.016).
Values joined by “and” are separate entries in the source; they are usually repeats but may differ in a detail not shown here. Equal values may be shown once.

B1: Chitosanase, P33665 (parent)
chain: MHSQHRTARIALAVVLTAIPASLATAGVGYASTQASTAVKAGAGLDDPHKKEIAMELVSSAENSSLDWKAQYKYIEDIGDGRGYTGGIIGFCSGTGDMLELVQHYTDLEPGNILAKYLPALKKVNGSASHSGLGTPFTKDWATAAKDTVFQQAQNDERDRVYFDPAVSQAKADGLRALGQFAYYDAIVMHGPGNDPTSFGGIRKTAMKKARTPAQGGDETTYLNAFLDARKAAMLTEAAHDDTSRVDTEQRVFLKAGNLDLNPPLKWKTYGDPYVINS

Variants of: B1
Conditions: Streptomyces sp. (strain N174), pH 4.5, Thermal, Fluorescence, reversible: No, structure 1CHK, whole UniProt chain shown

Row | Variant | change of melting temperature, mutant - wild type (higher = more stable) (Sodium acetate 100 mM) | Tm (Sodium acetate 50 mM) | change of melting temperature, mutant - wild type (higher = more stable) (Sodium acetate 50 mM)
1 | K204R | -1 °C and -0.2 °C and -0.9 °C | – | –
2 | A144L | -5.3 °C and -6.2 °C and -7 °C | 48 °C | -5.5 °C
